# Reference: IntAct's records for PubMed 22665060
# B1: Tight junction protein 2 (Homo sapiens), Q9UDY2-3 (parent)
# chain: MEELIWEQYTVTLQKDSKRGFGIAVSGGRDNPHFENGETSIVISDVLPGGPADGLLQENDRVVMVNGTPMEDVLHSFAVQQLRKSGKVAAIVVKRPRKVQVAALQASPPLDQDDRAFEVMDEFDGRSFRSGYSERSRLNSHGGRSRSWEDSPERGRPHERARSRERDLSRDRSRGRSLERGLDQDHARTRDRSRGRSLERGLDHDFGPSRDRDRDRSRGRSIDQDYERAYHRAYDPDYERAYSPEYRRGARHDARSRGPRSRSREHPHSRSPSPEPRGRPGPIGVLLMKSRANEEYGLRLGSQIFVKEMTRTGLATKDGNLHEGDIILKINGTVTENMSLTDARKLIEKSRGKLQLVVLRDSQQTLINIPSLNDSDSEIEDISEIESNRSFSPEERRHQYSDYDYHSSSEKLKERPSSREDTPSRLSRMGATPTPFKSTGDIAGTVVPETNKEPRYQEDPPAPQPKAAPRTFLRPSPEDEAIYGPNTKMVRFKKGDSVGLRLAGGNDVGIFVAGIQEGTSAEQEGLQEGDQILKVNTQDFRGLVREDAVLYLLEIPKGEMVTILAQSRADVYRDILACGRGDSFFIRSHFECEKETPQSLAFTRGEVFRVVDTLYDGKLGNWLAVRIGNELEKGLIPNKSRAEQMASVQNAQRDNAGDRADFWRMRGQRSGVKKNLRKSREDLTAVVSVSTKFPAYERVLLREAGFKRPVVLFGPIADIAMEKLANELPDWFQTAKTEPKDAGSEKSTGVVRLNTVRQIIEQDKHALLDVTPKAVDLLNYTQWFPIVIFFNPDSRQGVKTMRQRLNPTSNKSSRKLFDQANKLKKTCAHLFTATINLNSANDSWFGSLKDTIQHQQGEAVWVSEGKMEGMDDDPEDRMSYLTAMGADYLSCDSRLISDFEDTDGEGGAYTDNELDEPAEEPLVSSITRSSEPVQHEESIRKPSPEPRAQMRRAASSDQLRDNSPPPAFKPEPPKAKTQNKEESYDFSKSYEYKSNPSAVAGNETPGASTKGYPPPVAAKPTFGRSILKPSTPIPPQEGEEVGESSEEQDNAPKSVLGKVKIFEKMDHKARLQRMQELQEAQNARIEIAQKHPDIYAVPIKTHKPDPGTPQHTSSRPPEPQKAPSRPYQDTRGSYGSDAEEEEYRQQLSEHSKRGYYGQSARYRDTEL
# partner: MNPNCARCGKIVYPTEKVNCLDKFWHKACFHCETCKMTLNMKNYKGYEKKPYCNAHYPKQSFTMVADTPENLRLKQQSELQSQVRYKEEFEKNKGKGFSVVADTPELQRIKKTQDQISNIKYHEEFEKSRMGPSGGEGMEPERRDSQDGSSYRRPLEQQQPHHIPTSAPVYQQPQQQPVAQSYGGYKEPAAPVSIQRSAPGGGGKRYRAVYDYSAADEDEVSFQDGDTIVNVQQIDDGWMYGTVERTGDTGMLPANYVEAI
# Variants of: B1
# Settings: with lasp1_human LASP1, Q14847
row,Variant,effect of a mutation on the interaction
1,P1106A,decreasing interaction
2,P1106A;P1116A,disrupting interaction strength
